# Columns and labels:
# Recombinant Human IGF1R = molecular target: T1, Recombinant Human IGF1R (human, UniProt P08069 31-932); experiment: SPR (Biacore), N-terminal VD;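 note: capture of antibodies or DVD-Ig proteins on an anti-mouse IgG chip surface, recombinant antigen injected at 10–200 nM in HBS-EP running buffer at 25 °C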
# T1 construct: bought reagent
# [1] = molecular target: T2, Recombinant Human ErbB3/FC Chimera-His tag (human, UniProt P21860 20-643); experiment: SPR (Biacore), N-terminal VD;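 note: capture of antibodies or DVD-Ig proteins on an anti-mouse IgG chip surface, recombinant antigen injected at 10–200 nM in HBS-EP running buffer at 25 °C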
# T2 construct: bought reagent
# [2] = molecular target: T3, Recombinant Human MSP Receptor ECD-His tag (human, UniProt Q04912 25-957); experiment: SPR (Biacore)
# T3 construct: extracellular domain; bought reagent; also called RON
# Procedure: The BIACORE assay (Biacore, Inc, Piscataway, N.J.) determined the affinity of antibodies or DVD-Ig proteins with kinetic measurements of on-rate and off-rate constants. Binding of antibodies or DVD-Ig proteins to a target antigen (for example, a purified recombinant target antigen) was determined by surface plasmon resonance-based measurements with a Biacore® 1000 or 3000 instrument (Biacore AB, Uppsala. Sweden) using running HBS-EP (10 mM HEPES [pH 7.4], 150 mM NaCl, 3 mM EDTA, and 0.005% surfactant P20) at 25° C. […] For example, approximately 5000 RU of goat anti-mouse IgG, (Fcγ), fragment specific polyclonal antibody (Pierce Biotechnology Inc, Rockford, Ill.) diluted in 10 mM sodium acetate (pH 4.5) was directly immobilized across a CM5 research grade biosensor chip using a standard amine coupling kit according to manufacturer's instructions and procedures at 25 μg/ml. Unreacted moieties on the biosensor surface were blocked with ethanolamine. Modified carboxymethyl dextran surface in flowcell 2 and 4 was used as a reaction surface. Unmodified carboxymethyl dextran without goat anti-mouse IgG in flow cell 1 and 3 was used as the reference surface. For kinetic analysis, rate equations derived from the 1:1 Langmuir binding model were fitted simultaneously to association and dissociation phases of all eight injections (using global fit analysis) with the use of Biaevaluation 4.0.1 software. Purified antibodies or DVD-Ig proteins were diluted in HEPES-buffered saline for capture across goat anti-mouse IgG specific reaction surfaces. Antibodies or DVD-Ig proteins to be captured as a ligand (25 μg/ml) were injected over reaction matrices at a flow rate of 5 μl/minute. The association and dissociation rate constants, kₒₙ (M⁻¹s⁻¹) and koff (s⁻¹) were determined under a continuous flow rate of 25 μl/minute. Rate constants were derived by making kinetic binding measurements at different antigen concentrations ranging from 10-200 nM. The equilibrium dissociation constant (M) of the reaction between antibodies or DVD-Ig proteins and the target antigen was then calculated from the kinetic rate constants by the following formula: KD=koff/kₒₙ. Binding was recorded as a function of time and kinetic rate constants were calculated.
# [3] = molecular target: T3, Recombinant Human MSP Receptor ECD-His …; experiment: SPR (Biacore), N-terminal VD;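 note: capture of antibodies or DVD-Ig proteins on an anti-mouse IgG chip surface, recombinant antigen injected at 10–200 nM in HBS-EP running buffer at 25 °C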
binder,measurement,setting,value
"DVD2278 (bispecific antibody, DVD-Ig, outer AB075 / inner AB063) VH: EVQLVQSGAEVKKPGSSVKVSCKASGGTFSSYAISWVRQAPGQGLEWMGGIIPIFGTANYAQKFQGRVTITADKSTSTAYMELSSLRSEDTAVYYCARAPLRFLEWSTQDHYYYYYMDVWGKGTTVTVSSASTKGPEVQLVESGGGLVQPGGSLRLSCAASGFTFSIYSMNWVRQAPGKGLEWVSYISSSSSTIYYADSVKGRFTISRDNAKNSLYLQMNSLRDEDTAVYYCARDRGDFDAFDIWGQGTMVTVSS VL: SSELTQDPAVSVALGQTVRITCQGDSLRSYYATWYQQKPGQAPILVIYGENKRPSGIPDRFSGSSSGNTASLTITGAQAEDEADYYCKSRDGSGQHLVFGGGTKLTVLGQPKAAPDIQMTQSPSSLSASVGDRVTITCQASQDITNYLNWYQQKPGKAPKLLIYDASNLETGVPSRFSGSGSGTDFTFTISSLQPEDIATYNCQQCENFPITFGQGTRLEIK",Kd,Recombinant Human IGF1R,8.6 nM
same,koff,Recombinant Human IGF1R,0.00021 s⁻¹
same,kon,Recombinant Human IGF1R,25000 M⁻¹ s⁻¹
"DVD2281 (bispecific antibody, DVD-Ig, outer AB116 / inner AB075) VH: EVQLLESGGGLVQPGGSLRLSCAASGFTFSHYVMAWVRQAPGKGLEWVSSISSSGGWTLYADSVKGRFTISRDNSKNTLYLQMNSLRAEDTAVYYCTRGLKMATIFDYWGQGTLVTVSSASTKGPEVQLVQSGAEVKKPGSSVKVSCKASGGTFSSYAISWVRQAPGQGLEWMGGIIPIFGTANYAQKFQGRVTITADKSTSTAYMELSSLRSEDTAVYYCARAPLRFLEWSTQDHYYYYYMDVWGKGTTVTVSS VL: QSALTQPASVSGSPGQSITISCTGTSSDVGSYNVVSWYQQHPGKAPKLIIYEVSQRPSGVSNRFSGSKSGNTASLTISGLQTEDEADYYCCSYAGSSIFVIFGGGTKVTVLGQPKAAPSSELTQDPAVSVALGQTVRITCQGDSLRSYYATWYQQKPGQAPILVIYGENKRPSGIPDRFSGSSSGNTASLTITGAQAEDEADYYCKSRDGSGQHLVFGGGTKLTVL",Kd,[1],6.1 nM
same,koff,[1],0.00024 s⁻¹
same,kon,[1],40000 M⁻¹ s⁻¹
"DVD2208 (bispecific antibody, DVD-Ig, outer AB005 / inner AB034) VH: EVQLVQSGGGLVKPGGSLRLSCAASGFTFSSYAMHWVRQAPGKGLEWVAVISYDGSNKYYADSVKGRFTISRDNSKNTLYLQMNSLRAEDTAVYYCARFSGWPNNYYYYGMDVWGQGTTVTVSSASTKGPQVQLQESGPGLVKPSEILSLTCTVSGGSISSHYWSWVRQPPGKGLEWIGYIYYSGSTNYNPSLKSRVTISVDTSKNQFSLNLSSVTAADTAVYYCARIPNYYDRSGYYPGYWYFDLWGRGTLVTVSS VL: DVVMTQSPLSLPVTPGEPASISCRSSQSLLHSNGFNYVDWYLQKPGQSPHLLIYFGSYRASGVPDRFSGSGSGTDFTLKISRVEAEDVGVYYCMQALQTPPWTFGQGTKVEIRRTVAAPQAVLTQPSSLSAPPGASASLTCTLRSGFNVDSYRISWYQQKPGSPPQYLLRYKSDSDKQQGSGVPSRFSGSKDASANAGILLISGLQSEDEADYYCMIWHSSAWVFGGGTKLTVL",Kd,[2],16 nM
same,koff,[2],0.0013 s⁻¹
same,kon,[2],83000 M⁻¹ s⁻¹
"DVD2210 (bispecific antibody, DVD-Ig, outer AB005 / inner AB034) VH: EVQLVQSGGGLVKPGGSLRLSCAASGFTFSSYAMHWVRQAPGKGLEWVAVISYDGSNKYYADSVKGRFTISRDNSKNTLYLQMNSLRAEDTAVYYCARFSGWPNNYYYYGMDVWGQGTTVTVSSASTKGPQVQLQESGPGLVKPSEILSLTCTVSGGSISSHYWSWVRQPPGKGLEWIGYIYYSGSTNYNPSLKSRVTISVDTSKNQFSLNLSSVTAADTAVYYCARIPNYYDRSGYYPGYWYFDLWGRGTLVTVSS VL: DVVMTQSPLSLPVTPGEPASISCRSSQSLLHSNGFNYVDWYLQKPGQSPHLLIYFGSYRASGVPDRFSGSGSGTDFTLKISRVEAEDVGVYYCMQALQTPPWTFGQGTKVEIRRTVAAPSVFIFPPQAVLTQPSSLSAPPGASASLTCTLRSGFNVDSYRISWYQQKPGSPPQYLLRYKSDSDKQQGSGVPSRFSGSKDASANAGILLISGLQSEDEADYYCMIWHSSAWVFGGGTKLTVL",Kd,[2],15 nM
same,koff,[2],0.0017 s⁻¹
same,kon,[2],110000 M⁻¹ s⁻¹
"DVD2212 (bispecific antibody, DVD-Ig, outer AB005 / inner AB034) VH: EVQLVQSGGGLVKPGGSLRLSCAASGFTFSSYAMHWVRQAPGKGLEWVAVISYDGSNKYYADSVKGRFTISRDNSKNTLYLQMNSLRAEDTAVYYCARFSGWPNNYYYYGMDVWGQGTTVTVSSASTKGPSVFPLAPQVQLQESGPGLVKPSEILSLTCTVSGGSISSHYWSWVRQPPGKGLEWIGYIYYSGSTNYNPSLKSRVTISVDTSKNQFSLNLSSVTAADTAVYYCARIPNYYDRSGYYPGYWYFDLWGRGTLVTVSS VL: DVVMTQSPLSLPVTPGEPASISCRSSQSLLHSNGFNYVDWYLQKPGQSPHLLIYFGSYRASGVPDRFSGSGSGTDFTLKISRVEAEDVGVYYCMQALQTPPWTFGQGTKVEIRRTVAAPQAVLTQPSSLSAPPGASASLTCTLRSGFNVDSYRISWYQQKPGSPPQYLLRYKSDSDKQQGSGVPSRFSGSKDASANAGILLISGLQSEDEADYYCMIWHSSAWVFGGGTKLTVL",Kd,[2],16 nM
same,koff,[2],0.0012 s⁻¹
same,kon,[2],74000 M⁻¹ s⁻¹
"DVD2316 (bispecific antibody, DVD-Ig, outer AB005 / inner AB080) VH: EVQLVQSGGGLVKPGGSLRLSCAASGFTFSSYAMHWVRQAPGKGLEWVAVISYDGSNKYYADSVKGRFTISRDNSKNTLYLQMNSLRAEDTAVYYCARFSGWPNNYYYYGMDVWGQGTTVTVSSASTKGPEVQLVESGGGLVQPGGSLRLSCAASGFTFTDYTMDWVRQAPGKGLEWVADVNPNSGGSIYNQRFKGRFTLSVDRSKNTLYLQMNSLRAEDTAVYYCARNLGPSFYFDYWGQGTLVTVSS VL: DVVMTQSPLSLPVTPGEPASISCRSSQSLLHSNGFNYVDWYLQKPGQSPHLLIYFGSYRASGVPDRFSGSGSGTDFTLKISRVEAEDVGVYYCMQALQTPPWTFGQGTKVEIRRTVAAPDIQMTQSPSSLSASVGDRVTITCKASQDVSIGVAWYQQKPGKAPKLLIYSASYRYTGVPSRFSGSGSGTDFTLTISSLQPEDFATYYCQQYYIYPYTFGQGTKVEIK",Kd,[3],19 nM
same,koff,[3],0.00089 s⁻¹
same,kon,[3],46000 M⁻¹ s⁻¹
"DVD2282 (bispecific antibody, DVD-Ig, outer AB075 / inner AB062) VH: EVQLVQSGAEVKKPGSSVKVSCKASGGTFSSYAISWVRQAPGQGLEWMGGIIPIFGTANYAQKFQGRVTITADKSTSTAYMELSSLRSEDTAVYYCARAPLRFLEWSTQDHYYYYYMDVWGKGTTVTVSSASTKGPQVQLQQWGAGLLKPSETLSLTCAVYGGSFSGYYWSWIRQPPGKGLEWIGEINHSGSTNYNPSLKSRVTISVETSKNQFSLKLSSVTAADTAVYYCARDKWTWYFDLWGRGTLVTVSS VL: SSELTQDPAVSVALGQTVRITCQGDSLRSYYATWYQQKPGQAPILVIYGENKRPSGIPDRFSGSSSGNTASLTITGAQAEDEADYYCKSRDGSGQHLVFGGGTKLTVLGQPKAAPDIEMTQSPDSLAVSLGERATINCRSSQSVLYSSSNRNYLAWYQQNPGQPPKLLIYWASTRESGVPDRFSGSGSGTDFTLTISSLQAEDVAVYYCQQYYSTPRTFGQGTKVEIK",Kd,Recombinant Human IGF1R,5.2 nM
same,koff,Recombinant Human IGF1R,0.00013 s⁻¹
same,kon,Recombinant Human IGF1R,25000 M⁻¹ s⁻¹
"DVD2288 (bispecific antibody, DVD-Ig, outer AB075 / inner AB080) VH: EVQLVQSGAEVKKPGSSVKVSCKASGGTFSSYAISWVRQAPGQGLEWMGGIIPIFGTANYAQKFQGRVTITADKSTSTAYMELSSLRSEDTAVYYCARAPLRFLEWSTQDHYYYYYMDVWGKGTTVTVSSASTKGPEVQLVESGGGLVQPGGSLRLSCAASGFTFTDYTMDWVRQAPGKGLEWVADVNPNSGGSIYNQRFKGRFTLSVDRSKNTLYLQMNSLRAEDTAVYYCARNLGPSFYFDYWGQGTLVTVSS VL: SSELTQDPAVSVALGQTVRITCQGDSLRSYYATWYQQKPGQAPILVIYGENKRPSGIPDRFSGSSSGNTASLTITGAQAEDEADYYCKSRDGSGQHLVFGGGTKLTVLGQPKAAPDIQMTQSPSSLSASVGDRVTITCKASQDVSIGVAWYQQKPGKAPKLLIYSASYRYTGVPSRFSGSGSGTDFTLTISSLQPEDFATYYCQQYYIYPYTFGQGTKVEIK",Kd,Recombinant Human IGF1R,12 nM
same,koff,Recombinant Human IGF1R,0.00026 s⁻¹
same,kon,Recombinant Human IGF1R,22000 M⁻¹ s⁻¹
"DVD2209 (bispecific antibody, DVD-Ig, outer AB034 / inner AB005) VH: QVQLQESGPGLVKPSEILSLTCTVSGGSISSHYWSWVRQPPGKGLEWIGYIYYSGSTNYNPSLKSRVTISVDTSKNQFSLNLSSVTAADTAVYYCARIPNYYDRSGYYPGYWYFDLWGRGTLVTVSSASTKGPEVQLVQSGGGLVKPGGSLRLSCAASGFTFSSYAMHWVRQAPGKGLEWVAVISYDGSNKYYADSVKGRFTISRDNSKNTLYLQMNSLRAEDTAVYYCARFSGWPNNYYYYGMDVWGQGTTVTVSS VL: QAVLTQPSSLSAPPGASASLTCTLRSGFNVDSYRISWYQQKPGSPPQYLLRYKSDSDKQQGSGVPSRFSGSKDASANAGILLISGLQSEDEADYYCMIWHSSAWVFGGGTKLTVLRTVAAPDVVMTQSPLSLPVTPGEPASISCRSSQSLLHSNGFNYVDWYLQKPGQSPHLLIYFGSYRASGVPDRFSGSGSGTDFTLKISRVEAEDVGVYYCMQALQTPPWTFGQGTKVEIR",Kd,[2],23 nM
"DVD2211 (bispecific antibody, DVD-Ig, outer AB034 / inner AB005) VH: QVQLQESGPGLVKPSEILSLTCTVSGGSISSHYWSWVRQPPGKGLEWIGYIYYSGSTNYNPSLKSRVTISVDTSKNQFSLNLSSVTAADTAVYYCARIPNYYDRSGYYPGYWYFDLWGRGTLVTVSSASTKGPEVQLVQSGGGLVKPGGSLRLSCAASGFTFSSYAMHWVRQAPGKGLEWVAVISYDGSNKYYADSVKGRFTISRDNSKNTLYLQMNSLRAEDTAVYYCARFSGWPNNYYYYGMDVWGQGTTVTVSS VL: QAVLTQPSSLSAPPGASASLTCTLRSGFNVDSYRISWYQQKPGSPPQYLLRYKSDSDKQQGSGVPSRFSGSKDASANAGILLISGLQSEDEADYYCMIWHSSAWVFGGGTKLTVLRTVAAPSVFIFPPDVVMTQSPLSLPVTPGEPASISCRSSQSLLHSNGFNYVDWYLQKPGQSPHLLIYFGSYRASGVPDRFSGSGSGTDFTLKISRVEAEDVGVYYCMQALQTPPWTFGQGTKVEIR",Kd,[2],15 nM
"DVD2213 (bispecific antibody, DVD-Ig, outer AB034 / inner AB005) VH: QVQLQESGPGLVKPSEILSLTCTVSGGSISSHYWSWVRQPPGKGLEWIGYIYYSGSTNYNPSLKSRVTISVDTSKNQFSLNLSSVTAADTAVYYCARIPNYYDRSGYYPGYWYFDLWGRGTLVTVSSASTKGPSVFPLAPEVQLVQSGGGLVKPGGSLRLSCAASGFTFSSYAMHWVRQAPGKGLEWVAVISYDGSNKYYADSVKGRFTISRDNSKNTLYLQMNSLRAEDTAVYYCARFSGWPNNYYYYGMDVWGQGTTVTVSS VL: QAVLTQPSSLSAPPGASASLTCTLRSGFNVDSYRISWYQQKPGSPPQYLLRYKSDSDKQQGSGVPSRFSGSKDASANAGILLISGLQSEDEADYYCMIWHSSAWVFGGGTKLTVLRTVAAPDVVMTQSPLSLPVTPGEPASISCRSSQSLLHSNGFNYVDWYLQKPGQSPHLLIYFGSYRASGVPDRFSGSGSGTDFTLKISRVEAEDVGVYYCMQALQTPPWTFGQGTKVEIR",Kd,[2],18 nM

# From patent publication US20130195871A1 (AbbVie / Abbott, published 2013)
